Molecular target: the molecule itself

B1: PAS domain of Mycobacterium tuberculosis Rv1364c (residues 1-163) (domain or fragment)
chain: MAAEMDWDKTVGAAEDVRRIFEHIPAILVGLEGPDHRFVAVNAAYRGFSPLLDTVGQPAREVYPELEGQQIYEMLDRVYQTGEPQSGSEWRLQTDYDGSGVEERYFDFVVTPRRRADGSIEGVQLIVDDVTSRVRARQAAEARVEELSERYRNVRDSATVMQQ
modifications: Se-Methionine labeled (the crystallised protein only)
stoichiometry N: 2
